Measurements published in the nanobody polyreactivity screen of Harvey et al. (2022).

Test: yeast display, Sf9 membrane polyspecificity reagent, FACS + sequencing; frameworks hold sequencing errors
How it was run: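 Genes from sorted yeast were amplified by colony PCR, read by MiSeq 2 × 250 sequencing and filtered on CDR length. These cells carried a synthetic nanobody library in Saccharomyces cerevisiae BJ5465 and were sorted by FACS into low and high (top ~1%) gates on anti-HA and streptavidin fluorescence. Polyreactivity is labelled according to the gate of origin.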

Sequence | polyreactivity (PSR sort gate)
QVQLVESGGGLVQAGGSLRLSCAASGSTIRLNAMGWYRQAPGKERELVAAISWTGGSTYYADSVKGRFTISRDNAKNTVYLQMNSLKPEDTAVYYCAADWWQGTSHYWGGAYNYWGQGTQVTVSS | low polyreactivity
QVQLVESGGGLVQAGGSLRLCCAASGRIFDYNAMGLYRQAPGKERELVAAINSGGSTYADSVKGRFTISRDNAKNTVYLQMNSLKPEDTAVYYCANSLGQTDWEYDSWGQGTQVTVSS | low polyreactivity
QVQLVESGGGLVQAGGSLRLSCAASGGTFRPNAMGWYRQAPGKERELVAAITRSGGSTYYADSVKGRFTISRDNAKNTVYLQMNSLKPVDTAVYYCARDLREWGQGTQVTVSS | low polyreactivity
QVQLVESGGGLVQAGGSLRLSCAASGITLSQNAMGWYRQAPGKERELVAAIDSGGVDTYYADSVKGRFTISRDNAKNTVYLQMNSLKPEDTAVYYCAVDYSYEYEYWGQGTQVTVSS | low polyreactivity
HVQLVESGGGLVQAGGSLRLSCAASGRILRRNAMGWYRQAPGKEREFVAAITWRGGSTYYADSVKGRFTISRDNAKNTVYLQMNSLKPEDTAVYYCAADTYSVEYVLPYYYWGQGTQVTVSS | high polyreactivity
QVQLVESGGGLVEAGGSLRLSCAATGRTIRAYAMGWYRPEPGKERELVASISSGGSTKYADSVKGRFTISRDNAKNTVYLQMNSLKPEDTAVYFCAADRLLYGVDYWGQGTEVTVSS | low polyreactivity
QVQLVESGGGLVQAGGSLRLSCAASGRTVYVYYMGWYRQAPGKERELVAAISTNYADSVKGRCTISRDNAKNTVYFQMNSLIPEDTAVYYCAADDIHYVIHAYYSTGVDYWGQGTQVTVSS | low polyreactivity
QVQRVESGGGLLQAGGSLSLSCAASGSIFEWYAMGWYRQEPGTERELVAAIRSGGTTNYADSVKGRFTISRDHAKNTVYLQMNSLKPEVTAVYDCAAKSVTGLFRYYYWGQGTQVTVTS | low polyreactivity
QVQLVESGGGLVQAGGSLRLSCAASGLIFTYYAMGWYRQAPGKERELVAAITSGGSTNYADSVKGRFTISRDNAKYTVYLQMNSLKPEDTAVYYCAADYDTGSERYEYWGQGSQVTVSS | low polyreactivity
QVQLVESGGGLVQAGGSLRLSCASSGSTFNRYAMVWYRQAPGKERELVAAISGSGSSTYYADSVKGRFTISRDNAKNTVYLQMNSLKPEDNAVYYCAAVRYHKFREYNSWGQGTQVTVSS | high polyreactivity
QVQLVESGGGLVQAGGSLRLSCAASGIIFYKNAMGWYRQAPGKDRELVAAISGSGGRTYYADSVTGRFTISRDNGKNTVYFQMNSLKPEDTAVYYCAARQPYRHGYESWGQGSQVTVSS | high polyreactivity
QVQLVESGGGLVQAGGSLRLSCAASGSIFWQNGMGWYRQAPGKEREFVAAITRTGGSTYYADSVKGRFTISRDNAKNTVYLQMNSLKPEDTAVYYCAARGGYRYTRYDYWGQGTQVTVSS | high polyreactivity
QVQLVESGGGLVQAGGSLRLSCAASGRTFWYYTMGWYRQAPGKERELVAAITRRGGSTYYADSVKGRFTISRDNAKNTVYLQMNSLKPEDTAVYYCARGGSRLTQGWLVTPYDYDYWGQGTQVTVSS | high polyreactivity
QVQLVESGGGLVQAGGSLRLSCAASGFIFDVYAMGWYRQAPGKERELVAAITSGDGTNYADSVKGRFTISRDNAKNTVYLQMNSLKPEDTAVYYCAADDGVTYRGIIFSYWGQGTQVTVSS | low polyreactivity
QVQLVESGGGLVQAGGSLRLSCAASGSTFYYYAMGWYRQAPGKERELVAAITSGGSTDYADSVKGRFTISRDNAKNTVYLQMKSLKPEDTAVYYCAKDSQSYTREAYYYWGQGTQVTVSS | low polyreactivity
QVQLVESGGGLVQAGGSLRLSCAASGFIFSYAMGWYRQAPGKERELVAAISKSGGRTYYADSVKGRFTISRDNAKNTVYLQMNSLKPEDTAVYYCAVRDLHLSIARYNYWGQGTQVTVSS | high polyreactivity
QVQLVESGGGLVQAGGSLRLSCAASGRTYGIYAMGWYRQAPGKEREFVAAISWSSGGSTYYADSVKGRFTISRDNAKNTVYFQMISLKPEDTAVYYCNVDTIYNLESDYWGQGTQVTVSS | low polyreactivity
QVQLVESGGGLVKAGGSLRLSCAASGSNFTFYAMGWYRQAPGKVRELDATISLRGGRKYYADSVKGRFTISRDNAKNTVYLQMNSLKPEDTAVYYCNAPAYYGGYRFRGYNYWGQGTQVTVSS | high polyreactivity
QVQLVESGGGLVQAGRSLRLTCAASGRTFRAYTMGWYRQAPGKERDLVAAITSSGGGTYYADSVKGRFTISRDNAKNTVYLQMNSLKPEDTAVYYCNDRKQSYPDKYRRDYWGQGTQVTVSS | low polyreactivity
QVQLVESGGGLVQAGGSLRLSCAASGLIFTYYAMGWYRQAPGKERELVAAINYSGGSTYYADSVKGRFTISRDNAKNTVYLQMNSLKPEDTAVYYCAARRVTQTEGPMGYWGQGTQVTVSS | low polyreactivity
QVQLVESGGGIVQEGGSLRLSCAASGRTFNRYAMGWYRQAPGKERELVAAISWSGGRTYYADSVKGRFTISRDNAKNTVYLQMNSLIPEGTAVYYCAKEAYIRYDYWGQGTQVTVSS | low polyreactivity
QVQLVESGGGIVQAGGSLRLSCAASGTTIEYNAMGWYRQAPGKERELVASSTNYADSVKGRFTISRDNAKNTVYFQMNILKPEDTAVYYCAREQGVNRNHDYWGQGTQVTVSS | low polyreactivity

Sequence | polyreactivity (PSR sort gate)
QVQHVESGGGLDQAGGSLRLSCAASGSILTRYVMGWYRQAPGKERELVAAISQRGGSTYYADSVTGRFTISRDTAKYTVFLQMNSLKPEDTAVYYCAAETRVTSRRRFDYWGQGTQVTVSS | high polyreactivity
QVQLVESGGGLVQAGGSLRLSCAASGRIFLYYAMGWYRQAPGKERELVAASTYTDGSTYYADSVKGRFTISRDNAKNTVYLQMNSLKPEDTAVYYCAAEFYYYDYWGQGTQVTVSS | low polyreactivity
QVQLVESGGGLVQAGGSLRLSCAASGFTFGGYAMGWYRQAPGKERELVAAISGRGGRTYYADSVKGRFTISRDNAKNTVYLQMNSLKPEDTAVYYCAAPTNHWTLLSGDYWGQGTQVTVSS | high polyreactivity
QVQLVESGGGLVQAGGSLRLSCAASGSTFASNPMGGYRQAPGKERELVAAISGSGGSTYYADSVKGRFTISRDNAKNTVYLQMNSMTPEDTAVYYCNAAVAYYSYSYYTKVGVDYWGQGSQVTVSS | high polyreactivity
QVQLVESGGGLVQAGGSLRLSCAASGSTFVKYAMGWYRQAPGKERELVAAITASGGRTYYADSVKGRFTISRDNAKNTVYLQMISLKPEDTAVYYCNARGYHYGTLFDYWGQGTQVTVSS | high polyreactivity
QVQLVESGGGLVQAGGSLRLSCAASGSIFEGYVMGWYRPAPGKVRELVAAISWSGGSTYYADSVKGRFTISRDNAKNTVYLQMNSLKPEDTAVYYCAAYGYDRYGRTRYNSWGQGTQVTVSS | high polyreactivity
QVQLVESGGGLVQAGGSLRLSCAASGSIFNKYAMGWYRQAPGKERELVAAISVSGTRTYYADSVKGRFTISRDNAKNTVYLQMNSLKPEDTAVYYCAAGGVGAYDYWGQGTQVTVSS | high polyreactivity
QVQLVESGGGLVQAGGSLRLSCAASGITYSYNAMGWSRQAPGKERELVAAISSNSDSTYFADSVMGRFTISRDNAKNTVYLQMNSLKPEDTAVYYCAADTPDAAVYSGFYYWGQGTQVTVSS | low polyreactivity
QVQLVESGGGLVQAGGSLRLSCAASGRIFYYNAMGWYRQSPGKEREFVAAISSGGGSTYYADSVKGRFTISRDNAKNTVYLQMNSLKPEDTAVYYCAAKRQFYRGPAQALSGYGYWGQGTQVTVSS | high polyreactivity
QVQLVESGGGLVQAGGSLRLSCAASGRTFYKNAMGWYRQAPGKERELVARISRGGSTNYADSVKGRFTISRDNAKNTVYLQMNSLKPEDTAVYYCAKEYGTHGKTYDYWGQGTQVTVSS | high polyreactivity
QVQLVESGGGLVQAGGSLRLSCAASGRIIDTYAMGWYRQAPGKERELFASISRSDTSTSYADSVKGRFTISRDNAKNTVYLQMNCLKPEDTAVYYCNKDGVTVTNSKRYDYLGQGTQVTVSS | low polyreactivity
QVQLVESGGGLVQAGGSLRLSCAASGLIFGRNVMGWYRQAPGKERELVAAISWSGGRTYYADSVKGRFTISRDNAKNTVYLQMNSLKPEDTAVYYCAADDGPGFDYWGQGTQVTVSS | high polyreactivity
QVHLVESGGGLVQAGGSLRLSCAASGSIFFGNAMGWYRQAPGKERQLVAAISTTGGSTYYADSVKGRFTISRDNAKNTVYLQMNSLKPEDTAVFFCNSDRATWWEQWWYDYWGQGTQVTVSS | low polyreactivity
QVQLVESGGGLVQAGGSLRLSCAASGSTFSVNAMGWYRQAPGKEREFVARITWRGGSTYYADSVKRRFTISRDNAKNTVYLPMNSLKPEDTAVYYCAATLRYWWRSSYEDYYWGQGTQVTVSS | low polyreactivity
QVQLVESGGGLVQAGGILRLSCAASGRIFFPNAMGWFRQAPGKERELVASISRGTSTNYADSVKGRVTISRDNAKNTVYLQMHSLKPEDTAVYYCAAKSAPYFGGRSRYAYWGQGTQVTVSS | low polyreactivity
QVQLVESGGGLVQAGGSLRLSCAASGLTFAYNTMGWYRQAPGKEREFVASISSSGGNTYYADAVKGRFTISRDNAKNTVYLQMNSLKPEDTAVYYCAAKKKYHYFASYKRFEYWGQGTQVTVSS | low polyreactivity
QVHLVESWAGLVQAGGSLRLSGAASGTNVMGWYRQAPGKERELDAAISGSGGSTYYADSVKGRFTISRDNAKNTVYLQMNSLKPEDTAVYYCAADSIQYTARPYDYWGQGTQVTVSS | low polyreactivity
QVHLVESGGGLVQAGGSLRLSCAASGFTFDYNAMGWYRQAPGKEMELVAAISGSGGSTYYADSVKGRFTISRDNAKNTVYLQMNSLKPEDSSVYYCNAGRVTRRDTFDYWGQGTQVTVSS | high polyreactivity
QVQLVESGGGLVQAGGSLRLSCAASGSIFRFNAMGWYRQAAGKERELVAAISVRGSRTYYADSVKGRFTSSSDNAKNTVYLQMNSLKPEDTAVYYCNAEALTYSSRYDYWGQGTQVTVSS | low polyreactivity
QVQLVESGGGLVQAGGSLRLSCAASGSTLSVNAMGWYRQAPGKERELVAAIDFDGGDTYYADSVKGRFTISRDNAKNTVYLQMKSLKPEDTAVYFCAADIGGQYDYLADDYWGQGNQVTVSS | low polyreactivity
QVQLVESGGGLVQAGGSLRLSCAASGNTFYQYAMGWYRQAPGTERELVAAISSSGGSTYYADSVKGRFTISRDNAKKTVYLQMNSLKPEDTAVYYCATDKSYGYYYWGQGTQVTVSS | low polyreactivity
